Results as given in the supplement of paper PMC6755084.

Test system: F1*sub RNA substrate (template-directed ligation)
Assay: fraction ligated after 30 min (ligated reads / total reads); higher = more ligase activity; sequences stand for … in GAGACCGCAACTGAAAAGTTGT…AGTTCTGCACGTAGAAGCAAAAGGC
Settings: 42 °C
Outline: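 Ribozyme variants were transcribed with T7 from PCR-amplified oligo-pool templates and gel-purified. Ligated and unligated bands, separated on gel, were reverse transcribed with barcoded primers and sequenced on a MiSeq, with core bases filtered at quality ≥20. Fraction ligated per variant was computed as ligated reads divided by total reads.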

Sequence	fraction ligated
TATACTTGTCGTAAGACATTTGGATGGGTTA [3d923]	0.0964
TATCACTGTCGTAAGCACTTTGGATGGTTGA [3d1415]	0.175
TATCACTTGTTAAGACACTTTGGATGGTTGA [3d1715]	0.348
TATCACTTGTCGTAAGCACTTTGGATGGTTA [3d2148]	0.153
TACACTTGTCGTAGACACTTTGATGGGTTGA [3d666]	0.0743
TATCATTGTCGAAGACACTTTGGATGGGTTA [3d1212]	0.475
TATCACTTGTCGTAAGAACTTTGGAGGGTTGA [2d258]	0.0583
TATACTTGTCGTAAGACCTTGGATGGGTTGA [3d911]	0.777
ATCACTTTCGTAAGACACTTTGGATGGGTTGA [2d7]	0.772
ATCACTTGTCGTAAGCATTTGGATGGGTTGA [3d223]	0.731
TATCACTTGTTAAGACACTTTGATGGGTTGA [3d1712]	0.786
TATCATTGTCGTAAGACACTTGGAGGGTTGA [3d1272]	0.183
ATCACTTGTCGTAAGCACTTTGATGGGTTGA [3d225]	0.393
ATCACTTGTCGTAAGACCTTTGGATGGGTTGA [2d16]	0.741
TATCACTGTCGAAGACACTTTGGATGGTTGA [3d1382]	0.336
TACACTTGTCGTAAGCACTTTGGTGGGTTGA [3d687]	0.114
TTCACTTGTCGAAGCACTTTGGATGGGTTGA [3d418]	0.287
TATCACTTGTCGTAAGACACTTTGGGGTTGA [3d2260]	0.0415
TATATTGTCGTAGACACTTTGGATGGGTTGA [3d764]	0.499
TATCACTGTCGTAAGACACTTTGGATGGTTA [3d1460]	0.272
ATACTTGTCGTAAGACACTTTGGATGGGTTG [3d66]	0.244

Sequence	fraction ligated
TACACTTGTCGTAAGACCTTTGGTGGGTTGA [3d702]	0.138
TATCATTGTCGTAAGAACTTTGGTGGGTTGA [3d1250]	0.0672
ACACTTGTCGTAAGACACTTTGGATGGGTTA [3d44]	0.217
TATACTTGCGTAAGACACTTTGGATGGGTTG [3d827]	0.272
TATCACTTTGTAAGACACTTTGGATGGGTTG [3d1478]	0.82
ACACTTGTCGTAAGACACTTTGATGGGTTGA [3d40]	0.0824
TATCATTGCGTAGACACTTTGGATGGGTTGA [3d1159]	0.823
TATCATTGTCGTAGACACTTTGGATGGGTTA [3d1225]	0.595
TATCACTTGTCAAGAACTTTGGATGGGTTGA [3d1813]	0.839
TATACTTGTCGTAAGACACTTTATGGGTTGA [3d932]	0.0481
TATCATTGTCGTAAGACACTTTATGGGTTGA [3d1276]	0.0281
TACACTTGTCGTAAGACCTTTGGATGGTTGA [3d704]	0.358
TTCACTTGTCGTAAGACACTTTGGATGGTTA [3d504]	0.636
ACACTTGTCGTAGACACTTTGGATGGGTTGA [3d33]	0.552
TATCACTGTCGTAAGACACTTTGATGGTTGA [3d1450]	0.0354
TATCCTTGCGTAAGACACTTTGGAGGGTTGA [3d996]	0.0215
TACACTTGGTAAGACACTTTGGATGGGTTGA [3d601]	0.0847
TATCACTTGTCGTAAACACTTGGATGGGTTG [3d2087]	0.774
TATCACTTGCGTAAGACACTTTGGGGGTTGA [3d1694]	0.122
TATCACTTGTCGTAAGCACTTGATGGGTTGA [3d2129]	0.743
TATACTTCGTAAGACACTTTGGATGGGTTGA [3d778]	0.724

Sequence	fraction ligated
TTCATGTCGTAAGACACTTTGGATGGGTTGA [3d317]	0.468
TACACTTGCGTAAGACACTTTGGATGGGTTGA [2d52]	0.115
TATCACTTGTGAAGCACTTTGGATGGGTTGA [3d1720]	0.845
TATCATTGCGTAAGACACTTTGATGGGTTGA [3d1166]	0.681
TATCACTTGTCGAAGAACTTTGATGGGTTGA [3d1937]	0.796
ATCACTTGTCGTAGACACTTGGATGGGTTGA [3d204]	0.74
TATCATTGTCGTAAGCACTTTGGTGGGTTGA [3d1242]	0.0707
TATCACTTGCGTAAGACACTTTGAGGGTTGA [3d1690]	0.0844
TATCACTTTCGTAAGCACTTTGGTGGGTTGA [3d1534]	0.0496
TATCACTTTCGAAGACACTTTGATGGGTTGA [3d1500]	0.767
TATACTGTGTAAGACACTTTGGATGGGTTGA [3d780]	0.8
TATCACTTGTCGAAGACACTTTGAGGGTTGA [3d1966]	0.0437
TATCACTTGTTAAGAACTTTGGATGGGTTGA [3d1708]	0.874
TATCCTGTCGTAAGACATTTGGATGGGTTGA [3d960]	0.766
TATCACTTGTGTAAACACTTTGATGGGTTGA [3d1748]	0.831
TATCATTGCGTAAGACACTTTGGATGGGTTGA [2d111]	0.819
TATCACTTGTCGTAAGACACTTTTGGGTTGA [3d2255]	0.0315
TTCACTGTCGTAAGACACTTTGGTGGGTTGA [3d350]	0.0639
TATCATTTGTAAGACACTTTGGATGGGTTGA [3d1140]	0.803
TATCATTGTCGAAACACTTTGGATGGGTTGA [3d1202]	0.81
TATCACTTGTAAGACACTTTGGATGGGTTGA [3d1311]	0.837

Sequence	fraction ligated
TAACTTGTCGTAAGACACTTTGGTGGGTTGA [3d523]	0.0256
TATCACTGTCAAGACACTTTGGATGGGTTGA [3d1358]	0.817
ATACTTTCGTAAGACACTTTGGATGGGTTGA [3d49]	0.0977
TTCACTTGGTAAGACACTTTGGATGGGTTGA [3d371]	0.708
ATCACTTGTCGTAAGAACTTTGGATGGTTGA [3d236]	0.273
TATCATTGTCGTAAGCACTTTGGATGGGTTA [3d1245]	0.474
TACACTTGTCGTAAAACTTTGGATGGGTTGA [3d672]	0.0463
TATCACTGTGTAAGACACTTTGATGGGTTGA [3d1352]	0.355
TATCACTTGTGTAAGAACTTTGGATGGTTGA [3d1769]	0.0688
TATCACTTGTCGAAACACTTTGGAGGGTTGA [3d1921]	0.0563
TTCATTGTCGTAAGACACTTTGATGGGTTGA [3d330]	0.505
TATCACTTGTCGTAAGCACTTTGATGGTTGA [3d2138]	0.157
TATACTTGTCGTAAGACACTGGATGGGTTGA [3d925]	0.74
TTCACTGTCGTAAGACACTTTGGAGGGTTGA [3d351]	0.327
ATACTTGTCGTAAACACTTTGGATGGGTTGA [3d55]	0.112
TATCACTTGTCGTAGACACTTGGTGGGTTGA [3d2037]	0.105
TATCACTTGTCGTAAGACACTTTGGAGGGTT [3d2279]	0.0132
TATCACTGTCGTAAGACACTTGGATGGGTTA [3d1445]	0.775
TATCACTGTCGTAAGACTTTGGATGGGTTGA [3d1408]	0.856
TTCACTTGTGTAAGACCTTTGGATGGGTTGA [3d393]	0.548
